Laboratory results reported in patent US20240132624A1 (Ablynx, published 2024).
Changes are numbered by the printed parent chain. Names and notes keep the numbering of the source.

B1: T026301230 (other, name in Kabat numbering, not shown: small tags and cut ends)
chain: DVQLVESGGGVVQPGGSLRLSCAASGFTFSSYAMYWVRQAPGKGLEWVSAISSGGGSTDYADSVKGRFTISRDNSKNTLYLQMNSLRPEDTALYYCAADTLYTSLTSYSYWGQGTLVTVSS
notes: pentavalent ISVD construct
B2: T026301233 (other, name in Kabat numbering, not shown: small tags and cut ends)
chain: B1 chain with G26T, S53Q
notes: pentavalent ISVD construct
B3: T026301234 (other, not shown: small tags and cut ends)
chain: B1 chain with S107W
notes: pentavalent ISVD construct
B4: T026301170 (bispecific antibody)
chain: DVQLVESGGGVVQPGGSLRLSCAASGFTFSSYAMYWVRQAPGKGLEWVSAISSGGGSTDYADSVKGRFTISRDNSKNTLYLQMNSLRPEDTALYYCAADTLYTSLTWYSYWGQGTLVTVSSGGGGSGGGGSGGGGSGGGGSGGGGSGGGGSGGGGSEVQLVESGGGVVQPGGSLRLSCAASGFTFRSFGMSWVRQAPGKGPEWVSSISGSGSDTLYADSVKGRFTISRDNSKNTLYLQMNSLRPEDTALYYCTIGGSLSRSSQGTLVTVSSA
notes: bispecific ISVD construct; also called T0263018B11(E1D)-35GS-ALB23002-A
B5: T026301197 (bispecific antibody, name in Kabat numbering)
chain: B4 chain with S53Q
notes: bispecific ISVD construct; also called T0263018B11(E1D, S52aQ)-35GS-ALB23002-A
B6: T026301198 (bispecific antibody, name in Kabat numbering)
chain: B4 chain with W107S
notes: bispecific ISVD construct; also called T0263018B11(E1D, W100cS)-35GS-ALB23002-A
B7: T026301192 (bispecific antibody, name in Kabat numbering)
chain: B4 chain with S104E
notes: bispecific ISVD construct; also called T0263018B11(E1D, S100E)-35GS-ALB23002-A
B8: T026301064 (VHH, name in Kabat numbering)
VHH: B1 chain with D1E, A33D, S53Q, S107W
notes: tagless
B9: T026301075 (VHH, name in Kabat numbering)
VHH: B1 chain with D1E, G26T, S31E, S107W
notes: tagless
B10: T026301111 (VHH, name in Kabat numbering)
VHH: B1 chain with D1E, S31E, S53Q, S107W
notes: tagless
B11: T026301079 (VHH, name in Kabat numbering)
VHH: B1 chain with D1E, S53Q
notes: tagless
B12: T026301257 (bispecific antibody, not shown: small tags and cut ends)
chain: B4 chain with D1E
notes: tetravalent ISVD construct; also called X-Y-FcRn-35GS-ALB23002
B13: T026301266 (other)
VHH 1: B1 chain with D1E, S107W
VHH 2: EVQLVESGGGVVQPGGSLRLSCAASGFTFRSFGMSWVRQAPGKGPEWVSSISGSGSDTLYADSVKGRFTISRDNSKNTLYLQMNSLRPEDTALYYCTIGGSLSRSSQGTLVTVSSA
notes: tetravalent ISVD construct; also called X-FcRn-Y-ALB23002
B14: T026301259 (bispecific antibody, not shown: small tags and cut ends)
chain: EVQLVESGGGVVQPGGSLRLSCAASGFTFSSYAMYWVRQAPGKGLEWVSAISSGGGSTDYADSVKGRFTISRDNSKNTLYLQMNSLRPEDTALYYCAADTLYTSLTWYSYWGQGTLVTVSSGGGGSGGGSEVQLVESGGGVVQPGGSLRLSCAASGFTFRSFGMSWVRQAPGKGPEWVSSISGSGSDTLYADSVKGRFTISRDNSKNTLYLQMNSLRPEDTALYYCTIGGSLSRSSQGTLVTVSSA
notes: tetravalent ISVD construct; also called X-Y-FcRn-ALB23002
B15: T026301117 (VHH, name in Kabat numbering)
VHH: B1 chain with D1E, S31E
notes: tagless
B16: T026301100 (VHH, name in Kabat numbering)
VHH: B1 chain with D1E, A33D, S53Q, S104D, S107W
notes: tagless
B17: T026301091 (VHH, name in Kabat numbering)
VHH: B1 chain with D1E, S31E, A33D
notes: tagless
B18: T026301098 (VHH, name in Kabat numbering)
VHH: B1 chain with D1E, S31D, S107W
notes: tagless; also called T0263018B11 S31D
B19: T026301196 (bispecific antibody, name in Kabat numbering)
chain: B4 chain with G26T, S53Q, W107S
notes: bispecific ISVD construct; also called T0263018B11(E1D, G26T, S52aQ, W100cS)-35GS-ALB23002-A
B20: T026301366 (bispecific antibody, not shown: small tags and cut ends)
chain: B4 chain with D1E, W107S
notes: tetravalent ISVD construct; also called X-Y-FcRn(W100cS)-35GS-ALB23002

biological target: T1, human FcRn/b2M (human, UniProt P61769 21-119, biotinylated); test: SPR pH 7.4
T1 construct: bought recombinant biotinylated protein (ACRO FCM-H82W4 or Immunitrack ITF01); also called hFcRn; hFcRn/hb2M
T1 sequence (chain, as listed by the source limits assumed, chain 1 of 2): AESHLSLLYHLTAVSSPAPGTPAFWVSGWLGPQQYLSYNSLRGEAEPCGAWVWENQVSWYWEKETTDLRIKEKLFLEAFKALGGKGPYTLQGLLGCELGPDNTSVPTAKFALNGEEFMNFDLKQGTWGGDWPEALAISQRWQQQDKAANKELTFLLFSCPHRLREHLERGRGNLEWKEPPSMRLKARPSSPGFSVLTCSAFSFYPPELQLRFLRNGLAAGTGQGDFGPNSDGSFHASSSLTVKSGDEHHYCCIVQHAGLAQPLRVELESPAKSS
T1 sequence (P61769 21-119 limits assumed, chain 2 of 2): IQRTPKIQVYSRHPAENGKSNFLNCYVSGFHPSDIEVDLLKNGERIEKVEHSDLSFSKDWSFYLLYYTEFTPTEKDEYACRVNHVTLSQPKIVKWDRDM
Experimental: (§1) The affinities of the monovalent purified, tagless ISVDs were determined for human FcRn on ProteOn XPR36 (BioRad Laboratories, Inc.), the MASS-2 (Sierra sensors, Gmbh) or SPR-32 (Bruker Corporation) instrument. In the same way, the affinities of bivalent ISVD constructs comprising two of the same monovalent building blocks of purified, tagless ISVDs were determined for human FcRn on ProteOn XPR36 (BioRad Laboratories, Inc.), the MASS-2 (Sierra sensors, Gmbh) or SPR-32 (Bruker Corporation) instrument. For affinity measurements, ˜1000-3000RU (hFcRn/hb2M; ACRO Biosystems FCM-H82W4) was captured on a ProteOn NLC sensor (ProteOn) or Biotin-tag Capture Chip or a High Capacity Amine Chip (pre-immobilized with neutravidin; MASS-2). The ISVDs were injected at 6 different concentrations (between 1 and 4000 nM) and allowed to associate for 120s at 45 μL/min and dissociate for 600s-3600s at 45 μL/min. […] Evaluation of the sensorgrams was based on the 1:1 Langmuir dissociation model simultaneously fitting on and off-rates.

Binder | Kd
B1 | 670 nM
B2 | 750 nM
B3 | 740 nM

biological target: T2, cyno FcRn/b2M (cyno, UniProt Q8SPV9 24-297; Q8SPW0 21-119, biotinylated); test: SPR pH 7.4
T2 construct: bought recombinant biotinylated protein (Immunitrack ITF05 or ACRO FCM-C82W5); also called cFcRn; cFcRn/cb2M
T2 sequence (Q8SPV9 24-297 limits assumed, chain 1 of 2): as the sequence (chain, as listed by the source limits assumed, chain 1 of 2) above, with N39D, E44Q, G99S, S189G, S190N, L217M, S269T counted along it
T2 sequence (Q8SPW0 21-119 limits assumed, chain 2 of 2): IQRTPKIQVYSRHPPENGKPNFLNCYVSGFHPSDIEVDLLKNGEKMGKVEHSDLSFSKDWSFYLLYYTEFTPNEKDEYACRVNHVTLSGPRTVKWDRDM
Experimental: as §1

Binder | Kd
B1 | 580 nM
B2 | 420 nM
B3 | 490 nM

biological target: T1, human FcRn/b2M; test: SPR pH 7.4; remark: another data set of the same source
Experimental: (§2) The affinity of the purified, multivalent ISVD constructs for human and cyno FcRn was determined on the MASS-2 (Sierra sensors, Gmbh) instrument, hFcRn/hb2M and cFcRn/cb2M was captured on a Biotin-tag Capture Chip or a High Capacity Amine Chip (pre-immobilized with neutravidin). The ISVD constructs were injected at 6 different concentrations (between 1 and 4000 nM) and allowed to associate for 120 s at 45 μL/min and dissociate for 600 s-3600 s at 45 μL/min. […] Evaluation of the sensorgrams was based on the 1:1 Langmuir dissociation model simultaneously fitting on and off-rates.

Binder | Kd
B4 | 450 nM
B5 | 2600 nM
B6 | 2500 nM

biological target: T2, cyno FcRn/b2M; test: SPR pH 7.4; remark: another data set of the same source
Experimental: as §2

Binder | Kd
B4 | 290 nM
B5 | 2400 nM
B7 | 480 nM
B6 | 2900 nM

biological target: T1, human FcRn/b2M; test: SPR pH 7.4; remark: another data set of the same source

Binder | Kd
B8 | 3700 nM
B9 | 5600 nM
B10 | 5400 nM

biological target: T2, cyno FcRn/b2M; test: SPR pH 7.4; remark: another data set of the same source

Binder | Kd
B8 | 2400 nM
B11 | 5900 nM
B9 | 3100 nM
B10 | 5000 nM

biological target: T1, human FcRn/b2M; test: SPR pH 7.4; remark: another data set of the same source
Experimental: as §2

Binder | Kd
B12 | 1200 nM
B13 | 1600 nM
B14 | 830 nM

biological target: T2, cyno FcRn/b2M; test: SPR pH 7.4; remark: another data set of the same source
Experimental: as §2

Binder | Kd
B12 | 710 nM
B13 | 880 nM
B14 | 480 nM

biological target: T1, human FcRn/b2M; test: SPR pH 6.0

Binder | koff
B8 | 0.00046 s⁻¹
B11 | 0.0065 s⁻¹
B15 | 0.0067 s⁻¹
B16 | 0.0039 s⁻¹
B10 | 0.0032 s⁻¹
B17 | 0.0062 s⁻¹
B18 | 0.013 s⁻¹

biological target: T1, human FcRn/b2M; test: SPR pH 6.0; remark: another data set of the same source

Binder | Kd
B8 | 9.4 nM
B11 | 120 nM
B15 | 170 nM
B16 | 140 nM
B10 | 77 nM
B17 | 250 nM
B18 | 200 nM

biological target: T2, cyno FcRn/b2M; test: SPR pH 6.0

Binder | Kd
B8 | 3.8 nM
B11 | 76 nM
B15 | 110 nM
B16 | 98 nM
B9 | 21 nM
B10 | 48 nM
B17 | 160 nM
B18 | 140 nM

biological target: T3, human serum albumin (human, UniProt P02768 25-609); test: SPR pH 6.0
T3 construct: also called HSA
Experimental: (§3) The affinity of the purified, multivalent ISVD constructs for human and mouse serum albumin (HSA and MSA, respectively) was determined on the ProteOn XPR36 (BioRad Laboratories, Inc.) instrument. […] The ISVD constructs were injected at 6 different concentrations (between 1 and 500 nM) and allowed to associate for 120 s at 45 μL/min and dissociate for 600s-3600s at 45 μL/min. Evaluation of the sensorgrams was based on the 1:1 Langmuir dissociation model simultaneously fitting on and off-rates.

Binder | Kd
B4 | 6.1 nM
B19 | 7.4 nM
B5 | 5.1 nM
B7 | 5.7 nM
B6 | 7.3 nM

biological target: T4, mouse serum albumin (mouse, UniProt P07724 25-608); test: SPR pH 6.0
T4 construct: also called MSA
T4 sequence (P07724 25-608 limits assumed): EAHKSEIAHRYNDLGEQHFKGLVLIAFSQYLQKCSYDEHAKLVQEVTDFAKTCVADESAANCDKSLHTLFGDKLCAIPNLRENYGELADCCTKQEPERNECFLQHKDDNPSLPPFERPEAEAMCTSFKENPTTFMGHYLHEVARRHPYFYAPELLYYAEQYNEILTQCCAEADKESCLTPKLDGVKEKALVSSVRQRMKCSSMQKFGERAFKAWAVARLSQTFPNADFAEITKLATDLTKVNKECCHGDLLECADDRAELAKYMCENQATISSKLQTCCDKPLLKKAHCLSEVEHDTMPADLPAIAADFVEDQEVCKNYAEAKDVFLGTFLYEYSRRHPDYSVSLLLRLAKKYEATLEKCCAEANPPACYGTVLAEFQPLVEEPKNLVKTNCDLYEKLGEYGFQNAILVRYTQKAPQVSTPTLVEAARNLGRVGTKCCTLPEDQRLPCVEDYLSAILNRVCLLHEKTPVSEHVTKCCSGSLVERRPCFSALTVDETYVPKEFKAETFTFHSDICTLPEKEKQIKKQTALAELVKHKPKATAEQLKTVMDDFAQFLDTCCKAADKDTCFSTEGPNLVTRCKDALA
Experimental: as §3

Binder | Kd
B4 | 67 nM
B19 | 89 nM
B5 | 57 nM
B7 | 64 nM
B6 | 89 nM

biological target: T1, human FcRn/b2M; test: SPR pH 6.0; remark: another data set of the same source
Experimental: as §1

Binder | Kd
B1 | 100 nM
B2 | 490 nM
B3 | 26 nM

biological target: T2, cyno FcRn/b2M; test: SPR pH 6.0; remark: another data set of the same source
Experimental: as §1

Binder | Kd
B1 | 54 nM
B2 | 270 nM
B3 | 14 nM

biological target: T3, human serum albumin; test: SPR pH 6.0; remark: another data set of the same source
Experimental: as §3

Binder | Kd
B20 | 10 nM
B12 | 14 nM
B13 | 12 nM
B14 | 9.8 nM

biological target: T4, mouse serum albumin; test: SPR pH 6.0; remark: another data set of the same source
Experimental: as §3

Binder | koff
B12 | 0.056 s⁻¹
B13 | 0.053 s⁻¹
B14 | 0.038 s⁻¹

biological target: T3, human serum albumin; test: SPR pH 7.4
Experimental: as §3

Binder | Kd
B20 | 7.5 nM
B12 | 11 nM
B13 | 8.6 nM
B14 | 7.32 nM

biological target: T4, mouse serum albumin; test: SPR pH 7.4
Experimental: as §3

Binder | koff
B12 | 0.052 s⁻¹
B13 | 0.048 s⁻¹
B14 | 0.037 s⁻¹

biological target: T1, human FcRn/b2M; test: SPR; pH 7.4 vs pH 6.0

Binder | KD ratio pH 7.4/6.0
B8 | 394
B10 | 70

biological target: T2, cyno FcRn/b2M; test: SPR; pH 7.4 vs pH 6.0

Binder | KD ratio pH 7.4/6.0
B8 | 632
B11 | 78
B10 | 104

biological target: T3, human serum albumin; test: SPR pH 7.4; remark: another data set of the same source
Experimental: as §3

Binder | Kd
B4 | 13 nM
B19 | 15 nM
B5 | 11 nM
B7 | 12 nM
B6 | 15 nM

biological target: T4, mouse serum albumin; test: SPR pH 7.4; remark: another data set of the same source
Experimental: as §3

Binder | Kd
B4 | 85 nM
B19 | 120 nM
B5 | 69 nM
B7 | 87 nM
B6 | 120 nM

biological target: T1, human FcRn/b2M; test: SPR pH 6.0; remark: another data set of the same source
Experimental: as §2

Binder | Kd
B4 | 12 nM
B19 | 1000 nM
B5 | 71 nM
B7 | 250 nM

biological target: T2, cyno FcRn/b2M; test: SPR pH 6.0; remark: another data set of the same source
Experimental: as §2

Binder | Kd
B4 | 7.9 nM
B19 | 510 nM
B5 | 41 nM
B7 | 140 nM
B6 | 67 nM

biological target: T1, human FcRn/b2M; test: SPR pH 6.0; remark: another data set of the same source
Experimental: as §2

Binder | Kd
B12 | 34 nM
B13 | 41 nM
B14 | 25 nM

biological target: T2, cyno FcRn/b2M; test: SPR pH 6.0; remark: another data set of the same source
Experimental: as §2

Binder | Kd
B20 | 180 nM
B12 | 20 nM
B13 | 26 nM
B14 | 15 nM
